How the values were obtained:
[1] = system: Nc1ncnc2c1ncn2[C@@H]1O[C@H](COP(=O)(O)O[C@H]2[C@@H](O)[C@H](n3cnc4c(N)ncnc43)O[C@@H]2COP(=O)(O)O)[C@@H](O)[C@H]1O; test: initial rate, LC quantification of end product AMP (A254); format: biochemical, Streptococcus mutans; conditions: 50 mM potassium phosphate pH 7.0, 1 mM MnCl2, 0-0.3 mM substrate
Description: initial rate, LC quantification of end product AMP (A254) on rDhhP-ProS2 (recombinant DhhP, SMU_1297)

[2] = system: [H][C@@]1(O)[C@]2([H])OP(=O)(O)OC[C@@]3([H])O[C@@]([H])(n4cnc5c(N)ncnc54)[C@]([H])(O)[C@]3([H])OP(=O)(O)OC[C@@]2([H])O[C@@]1([H])n1cnc2c(N)ncnc21; test: purified protein; conditions: 50 mM potassium phosphate pH 5.0, 1 mM MnCl2, 0-0.3 mM substrate
Description: initial rate, LC quantification of end product pApA (A254) on rGdpP109-657-ProS2 (truncated recombinant GdpP, SMU_2140c)

| Substance | Km [1] | Vmax [1] | kcat [1] | Km [2] | Vmax [2] | kcat [2] |
| --- | --- | --- | --- | --- | --- | --- |
| rDhhP-ProS2 (recombinant DhhP, SMU_1297) (Streptococcus mutans UA159) | 199 ± 65.4 µM | 32.1 µmol/min/mg | 36.5 ± 8.08 s⁻¹ |  |  |  |
| rGdpP109-657-ProS2 (truncated recombinant GdpP, SMU_2140c) (Streptococcus mutans UA159) |  |  |  | 89.7 ± 7.29 µM | 4.58 µmol/min/mg | 4.02 ± 0.2 s⁻¹ |
